One assay has as its target T1, 4H63-AA.
T1 chain: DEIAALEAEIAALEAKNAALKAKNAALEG
The assay is described as follows: two-hybrid library CCmax.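 Also: natural log of median RNA to DNA barcode read ratio; higher means stronger binding.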 The settings on record: mean of both orientations.

In a further assay the target is T2, 4H432-AA.
T2 chain: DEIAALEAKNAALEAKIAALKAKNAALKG
Kind of assay: two-hybrid library CCmax.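 Also: natural log of median RNA to DNA barcode read ratio; higher means stronger binding.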 To be noted: mean of both orientations.

Another assay deals with T3, 4H3974-AA.
T3 chain: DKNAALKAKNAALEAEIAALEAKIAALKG
Kind of assay: two-hybrid library CCmax.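 Also: natural log of median RNA to DNA barcode read ratio; higher means stronger binding.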

The target in a further assay is T4, 4H446-AA.
T4 chain: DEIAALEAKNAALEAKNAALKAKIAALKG
The assay is described as follows: two-hybrid library CCmax.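 Also: natural log of median RNA to DNA barcode read ratio; higher means stronger binding.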 To be noted: mean of both orientations.

In a further assay the target is T5, 4H850-AA.
T5 chain: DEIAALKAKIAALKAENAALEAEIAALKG
Kind of assay: two-hybrid library CCmax.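 Also: natural log of median RNA to DNA barcode read ratio; higher means stronger binding.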 The settings on record: mean of both orientations.

The target of another assay is T6, 4H94-AA.
T6 chain: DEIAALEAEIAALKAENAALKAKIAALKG
The assay is described as follows: two-hybrid library CCmax.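 Also: natural log of median RNA to DNA barcode read ratio; higher means stronger binding.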 To be noted: mean of both orientations.

In another assay the target is T7, 4H485-AA.
T7 chain: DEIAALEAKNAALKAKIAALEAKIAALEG
Kind of assay: two-hybrid library CCmax. The settings on record: mean of both orientations.

A further assay deals with T8, 4H536-AA.
T8 chain: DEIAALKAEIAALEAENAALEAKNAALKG
Kind of assay: two-hybrid library CCmax. The settings on record: mean of both orientations.

The target of another assay is T9, 4H930-AA.
T9 chain: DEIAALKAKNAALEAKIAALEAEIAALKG
The assay is described as follows: two-hybrid library CCmax. To be noted: mean of both orientations.

The target in the next assay is T10, 4H3697-AA.
T10 chain: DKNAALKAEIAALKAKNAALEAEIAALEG
The assay is described as follows: two-hybrid library CCmax. To be noted: mean of both orientations.

In a further assay the target is T11, 4H909-AA.
T11 chain: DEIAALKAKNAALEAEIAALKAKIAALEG
The assay is described as follows: two-hybrid library CCmax. The settings on record: mean of both orientations.

For a further assay, the target named is T12, 4H3395-AA.
T12 chain: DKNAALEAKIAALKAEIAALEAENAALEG
Kind of assay: two-hybrid library CCmax. To be noted: mean of both orientations.

For the next assay, the target named is T13, 4H3165-AA.
T13 chain: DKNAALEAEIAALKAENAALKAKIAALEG
Kind of assay: two-hybrid library CCmax. The settings on record: mean of both orientations.

The next assay deals with T14, 4H3590-AA.
T14 chain: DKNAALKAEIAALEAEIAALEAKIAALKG
The assay is described as follows: two-hybrid library CCmax. To be noted: mean of both orientations.

Another assay addresses T15, 4H745-AA.
T15 chain: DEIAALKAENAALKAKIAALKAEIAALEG
Kind of assay: two-hybrid library CCmax. To be noted: mean of both orientations.

For another assay, the target named is T16, 4H458-AA.
T16 chain: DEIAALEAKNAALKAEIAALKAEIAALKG
The assay is described as follows: two-hybrid library CCmax. To be noted: mean of both orientations.

In the next assay the target is T17, 4H3130-AA.
T17 chain: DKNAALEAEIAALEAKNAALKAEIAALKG
Kind of assay: two-hybrid library CCmax.

A further assay has as its target T18, 4H3753-AA.
T18 chain: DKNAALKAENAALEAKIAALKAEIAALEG
The assay is described as follows: two-hybrid library CCmax. The settings on record: mean of both orientations.

A further assay concerns the target T19, 4H3865-AA.
T19 chain: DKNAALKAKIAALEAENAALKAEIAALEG
Kind of assay: two-hybrid library CCmax. To be noted: mean of both orientations.

The target in the next assay is T20, 4H797-AA.
T20 chain: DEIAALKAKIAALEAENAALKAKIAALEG
Kind of assay: two-hybrid library CCmax. To be noted: mean of both orientations.

The target of another assay is T21, 4H710-AA.
T21 chain: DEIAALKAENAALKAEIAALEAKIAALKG
The assay is described as follows: two-hybrid library CCmax. To be noted: mean of both orientations.

A further assay has as its target T22, 4H891-AA.
T22 chain: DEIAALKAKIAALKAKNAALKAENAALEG
The assay is described as follows: two-hybrid library CCmax. To be noted: mean of both orientations.

A further assay addresses T23, 4H3381-AA.
T23 chain: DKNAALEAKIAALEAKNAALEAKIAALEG
The assay is described as follows: two-hybrid library CCmax. The settings on record: mean of both orientations.

Another assay deals with T24, 4H570-AA.
T24 chain: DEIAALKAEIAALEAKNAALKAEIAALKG
Kind of assay: two-hybrid library CCmax. The settings on record: mean of both orientations.

The next assay addresses T25, 4H3410-AA.
T25 chain: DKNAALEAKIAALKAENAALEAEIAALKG
The assay is described as follows: two-hybrid library CCmax. To be noted: mean of both orientations.

For another assay, the target named is T26, 4H629-AA.
T26 chain: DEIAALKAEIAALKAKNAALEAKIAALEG
Kind of assay: two-hybrid library CCmax. To be noted: mean of both orientations.

A further assay concerns the target T27, APC9806-AA.
T27 chain: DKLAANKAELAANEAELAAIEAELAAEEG
Kind of assay: two-hybrid library CCmax. To be noted: mean of both orientations.

For the next assay, the target named is T28, APC9291-AA.
T28 chain: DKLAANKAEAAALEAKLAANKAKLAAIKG
Kind of assay: two-hybrid library CCmax.

A further assay has as its target T29, 4H906-bN.
T29 chain: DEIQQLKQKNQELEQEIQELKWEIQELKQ
Kind of assay: two-hybrid library CCNG1.

A further assay addresses T30, 4H850-bN.
T30 chain: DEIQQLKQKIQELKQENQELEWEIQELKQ
Kind of assay: two-hybrid library CCNG1.

Take DKNAALKAKNAALEAEIAALEAKIAALKG [4H3974-AA]: the interaction score was -0.932 in the assay with 4H63-AA, -0.198 in the assay with 4H432-AA, -0.00837 in the assay with 4H3974-AA and -0.724 with 4H446-AA.
Consider DKNAALEAEIAALEAKNAALKAEIAALKG [4H3130-AA], for which the interaction score is 2.04 in the assay with 4H850-AA; -0.202 with 4H94-AA; -1.58 with 4H485-AA; -0.902 in the assay with 4H536-AA; -1.73 with 4H930-AA; -0.0288 in the assay with 4H3697-AA. The interaction score is -1.06 with 4H909-AA; -1.29 in the assay with 4H3395-AA; -1.3 with 4H3165-AA; 0.624 with 4H3590-AA; -1.54 with 4H745-AA; -3.23 with 4H458-AA. Further, the interaction score was 0.118 with 4H3130-AA; -0.789 with 4H3753-AA; 1.11 in the assay with 4H3865-AA; -1.21 with 4H797-AA; -1.31 with 4H710-AA; -1.99 in the assay with 4H891-AA. The interaction score with 4H3381-AA was -1.07; with 4H570-AA, -0.712; with 4H3410-AA, 2.07; with 4H629-AA, -1.31.
For DKLAANKAEAAALEAKLAANKAKLAAIKG [APC9291-AA], the interaction score in the assay with APC9806-AA and in the assay with APC9291-AA was -1.78 throughout.
On to DEIQQLKQKIQELKQENQELEWEIQELKQ [4H850-bN], for which the interaction score is -0.386 with 4H906-bN and 0.186 with 4H850-bN.

These data come from article PMC10397247.
